The source of these data is PMC9642902 (2022).

Common to all, as to test: ITC
Background: Isothermal titration calorimetry measures the heat released or taken up as one component is titrated into another.

For assay [1], the target named is MjATG8-I, recombinant protein for ITC (Mirabilis jalapa).
The target in assay [2] is MjATG8-III, recombinant protein for ITC (Mirabilis jalapa).
The next assay has as its target PmPexRD54 AIM peptide (Phytophthora mirabilis).

B1: PiPexRD54 AIM peptide (peptide)
chain: KPLDFDWEIV
The Kd is a measure of binding affinity in units of concentration. Take B1: the results for the Kd in assay [1] and in assay [2] were 0.21 µM and 0.12 µM, respectively.

B2: potato ATG8-2.2 (StATG8-2.2), protein for ITC (natural protein)
chain: MAKSSFKLEHPLERRQAEAARIREKYPDRIPVIVEKAERSDIPDIDKKKYLVPADLTVGQFVYVVRKRIKLSAEKAIFIFVKNILPPTAAMMSAIYEEHKDEDGFLYMTYSGENTFG
In the assay with PmPexRD54 AIM peptide, B2 had a Kd of 4200 µM.
